Measured values as given in paper PMC9482650, “Quantitative fragmentomics allow affinity mapping of interactomes” (Nature Communications, 2022).
One block for each binder: values may come before it.

Tests used:
Assay in all cases: holdup assay
Set-up in all cases: key: below the threshold = too weak to quantify, mostly under pKd 3.1 to 4
PDLIM1, O00151 = target: PDLIM1, O00151
GRIP1_5, Q9Y3R0 = target: T1, GRIP1_5, Q9Y3R0
T1 sequence (Q9Y3R0 568-668, limits assumed, looked up): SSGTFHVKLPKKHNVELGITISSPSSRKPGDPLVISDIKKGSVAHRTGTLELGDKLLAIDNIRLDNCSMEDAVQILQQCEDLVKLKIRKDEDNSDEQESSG

TIAM2, Q8IVF5 = target: T2, TIAM2, Q8IVF5
T2 sequence (Q8IVF5 885-986, limits assumed, looked up): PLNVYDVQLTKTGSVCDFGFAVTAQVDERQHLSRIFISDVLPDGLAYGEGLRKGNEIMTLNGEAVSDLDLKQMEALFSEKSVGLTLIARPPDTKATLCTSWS

FRMPD1, Q5SYB0 = target: T3, FRMPD1, Q5SYB0
T3 sequence (Q5SYB0 52-145, limits assumed, looked up): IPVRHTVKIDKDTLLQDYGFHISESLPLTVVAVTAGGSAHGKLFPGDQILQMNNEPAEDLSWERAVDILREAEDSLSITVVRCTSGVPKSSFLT

APBA2_1, Q99767 = target: T4, APBA2_1, Q99767
T4 sequence (Q99767 563-664, limits assumed, looked up): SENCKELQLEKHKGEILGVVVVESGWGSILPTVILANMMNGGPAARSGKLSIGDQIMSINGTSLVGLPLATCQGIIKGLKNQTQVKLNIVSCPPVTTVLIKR

MAGI2_5, Q86UL8 = target: MAGI2_5, Q86UL8
LNX1_2, Q8TBB1 = target: LNX1_2, Q8TBB1
FRMPD3, Q5JV73 = target: FRMPD3, Q5JV73
Inadl_6, Q8NI35 = target: Inadl_6, Q8NI35
MPP2, Q14168 = target: T5, MPP2, Q14168
T5 sequence (Q14168 180-250, limits assumed, looked up): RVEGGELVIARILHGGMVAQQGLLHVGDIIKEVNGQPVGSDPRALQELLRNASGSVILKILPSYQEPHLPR

APBA1_2, Q02410 = target: T6, APBA1_2, Q02410
T6 sequence (Q02410 742-832, limits assumed, looked up): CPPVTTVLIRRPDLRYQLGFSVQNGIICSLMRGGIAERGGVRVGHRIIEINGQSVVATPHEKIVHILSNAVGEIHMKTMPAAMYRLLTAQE

RADIL, Q96JH8 = target: T7, RADIL, Q96JH8
T7 sequence (Q96JH8 971-1071, limits assumed, looked up): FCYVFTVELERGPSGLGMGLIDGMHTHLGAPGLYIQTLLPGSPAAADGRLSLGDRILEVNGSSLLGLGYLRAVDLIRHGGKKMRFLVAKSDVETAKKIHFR

NOS1, P29475 = target: NOS1, P29475
APBA2_2, Q99767 = target: T8, APBA2_2, Q99767
T8 sequence (Q99767 654-744, limits assumed, looked up): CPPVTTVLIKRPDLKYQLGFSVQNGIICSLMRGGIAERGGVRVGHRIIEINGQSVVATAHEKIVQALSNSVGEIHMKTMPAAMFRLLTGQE

DLG4_1, P78352 = target: DLG4_1, P78352
SCRIB_3, Q14160 = target: SCRIB_3, Q14160
MAST2, Q6P0Q8 = target: MAST2, Q6P0Q8
GRIP2_5, Q9C0E4 = target: GRIP2_5, Q9C0E4
MAGI2_4, Q86UL8 = target: MAGI2_4, Q86UL8
NHERF3_4, Q5T2W1 = target: T9, NHERF3_4, Q5T2W1
T9 sequence (Q5T2W1 373-468, limits assumed, looked up): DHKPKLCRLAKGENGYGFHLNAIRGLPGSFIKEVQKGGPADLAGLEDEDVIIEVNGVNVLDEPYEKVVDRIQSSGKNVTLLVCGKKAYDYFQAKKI

TJP1_2, Q07157 = target: TJP1_2, Q07157
SIPA1L2, Q9P2F8 = target: T10, SIPA1L2, Q9P2F8
T10 sequence (Q9P2F8 945-1036, limits assumed, looked up): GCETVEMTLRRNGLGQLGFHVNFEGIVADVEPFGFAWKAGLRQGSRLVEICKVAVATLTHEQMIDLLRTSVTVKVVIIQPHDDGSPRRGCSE

LRRC7, Q96NW7 = target: T11, LRRC7, Q96NW7
T11 sequence (Q96NW7 1440-1537, limits assumed, looked up): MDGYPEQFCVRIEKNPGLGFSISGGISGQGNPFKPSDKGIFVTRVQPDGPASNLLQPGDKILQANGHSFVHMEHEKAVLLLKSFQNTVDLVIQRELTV

DLG3_2, Q92796 = target: T12, DLG3_2, Q92796
T12 sequence (Q92796 221-321, limits assumed, looked up): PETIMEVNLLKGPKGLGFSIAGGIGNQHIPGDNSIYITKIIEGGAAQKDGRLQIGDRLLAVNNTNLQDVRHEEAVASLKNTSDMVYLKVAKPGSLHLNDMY

LNX2_2, Q8N448 = target: T13, LNX2_2, Q8N448
T13 sequence (Q8N448 334-432, limits assumed, looked up): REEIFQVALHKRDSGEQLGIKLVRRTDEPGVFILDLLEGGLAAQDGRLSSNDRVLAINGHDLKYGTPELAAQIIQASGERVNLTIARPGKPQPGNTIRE

[1] = plain residues with an end cap or a label only (N-terminal biotin on a linker: ado-ado)
[2] = plain residues with an end cap or a label only (N-terminal biotin on a linker: ahx)

Chain of LNX1_2, Q8TBB1 (Q8TBB1 371-470): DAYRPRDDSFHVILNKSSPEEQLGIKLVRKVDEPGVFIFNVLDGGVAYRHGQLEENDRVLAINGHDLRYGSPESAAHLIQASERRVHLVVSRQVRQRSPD
Chain of TJP1_2, Q07157 (Q07157 181-274): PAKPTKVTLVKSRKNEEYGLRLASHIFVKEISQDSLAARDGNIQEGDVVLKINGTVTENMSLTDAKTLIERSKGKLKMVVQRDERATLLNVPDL
Chain of Inadl_6, Q8NI35 (Q8NI35 1058-1167): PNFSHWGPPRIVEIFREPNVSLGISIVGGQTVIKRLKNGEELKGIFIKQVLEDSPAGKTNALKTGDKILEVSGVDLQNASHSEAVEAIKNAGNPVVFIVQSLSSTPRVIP
Chain of SCRIB_3, Q14160 (Q14160 999-1103): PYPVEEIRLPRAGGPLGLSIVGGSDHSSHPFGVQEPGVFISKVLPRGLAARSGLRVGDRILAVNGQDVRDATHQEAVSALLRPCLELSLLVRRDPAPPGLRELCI
Chain of FRMPD3, Q5JV73 (Q5JV73 12-100): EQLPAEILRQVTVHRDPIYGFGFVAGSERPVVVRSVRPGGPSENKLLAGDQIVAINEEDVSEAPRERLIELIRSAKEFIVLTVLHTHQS
Chain of NOS1, P29475 (P29475 9-101): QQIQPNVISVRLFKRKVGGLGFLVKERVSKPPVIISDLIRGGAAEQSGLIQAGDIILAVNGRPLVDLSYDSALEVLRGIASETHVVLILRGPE
Chain of MAGI2_5, Q86UL8 (Q86UL8 915-1017): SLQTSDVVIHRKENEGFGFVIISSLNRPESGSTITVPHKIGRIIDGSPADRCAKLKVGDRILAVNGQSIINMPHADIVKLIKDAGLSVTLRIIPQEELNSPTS
Chain of PDLIM1, O00151 (O00151 1-87): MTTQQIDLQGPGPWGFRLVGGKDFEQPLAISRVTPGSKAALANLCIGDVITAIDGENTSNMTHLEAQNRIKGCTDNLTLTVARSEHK
Chain of MAST2, Q6P0Q8 (Q6P0Q8 1099-1202): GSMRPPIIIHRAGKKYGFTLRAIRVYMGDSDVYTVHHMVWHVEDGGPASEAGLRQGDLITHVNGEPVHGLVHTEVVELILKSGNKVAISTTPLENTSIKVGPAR
Chain of DLG4_1, P78352 (P78352 62-152): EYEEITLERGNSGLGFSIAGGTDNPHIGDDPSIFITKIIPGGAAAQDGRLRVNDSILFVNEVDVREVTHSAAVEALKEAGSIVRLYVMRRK
Chain of MAGI2_4, Q86UL8 (Q86UL8 772-865): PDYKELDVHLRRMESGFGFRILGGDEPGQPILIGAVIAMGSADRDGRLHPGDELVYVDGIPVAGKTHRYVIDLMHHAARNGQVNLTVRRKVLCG
Chain of GRIP2_5, Q9C0E4 (Q9C0E4 544-642): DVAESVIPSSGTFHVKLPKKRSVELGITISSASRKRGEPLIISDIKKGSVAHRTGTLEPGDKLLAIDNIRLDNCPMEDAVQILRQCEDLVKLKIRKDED

- pKd (PDLIM1, O00151; [1]): 5.09
- pKd (GRIP1_5, Q9Y3R0; [1]): below the threshold
- pKd (TIAM2, Q8IVF5; [1]): 4.19
- pKd (FRMPD1, Q5SYB0; [1]): below the threshold
- pKd (APBA2_1, Q99767; [1]): below the threshold
- pKd (MAGI2_5, Q86UL8; [1]): 4.02
- pKd (LNX1_2, Q8TBB1; [1]): below the threshold
- pKd (FRMPD3, Q5JV73; [1]): below the threshold
- pKd (Inadl_6, Q8NI35; [1]): below the threshold
- pKd (MPP2, Q14168; [1]): below the threshold
- pKd (APBA1_2, Q02410; [1]): below the threshold
- pKd (RADIL, Q96JH8; [1]): below the threshold
- pKd (NOS1, P29475; [1]): below the threshold
- pKd (APBA2_2, Q99767; [1]): below the threshold
- pKd (DLG4_1, P78352; [1]): below the threshold
- pKd (SCRIB_3, Q14160; [1]): below the threshold
- pKd (MAST2, Q6P0Q8; [1]): 4.88
- pKd (GRIP2_5, Q9C0E4; [1]): below the threshold
- pKd (MAGI2_4, Q86UL8; [1]): below the threshold
- pKd (NHERF3_4, Q5T2W1; [1]): below the threshold
- pKd (TJP1_2, Q07157; [1]): below the threshold
- pKd (SIPA1L2, Q9P2F8; [1]): below the threshold
- pKd (LRRC7, Q96NW7; [1]): below the threshold
- pKd (DLG3_2, Q92796; [1]): 4.21
- pKd (LNX2_2, Q8N448; [1]): below the threshold
Binder: QSGLYESEEL [MYOT, Q9UBF9]

- pKd (PDLIM1, O00151; [1]): below the threshold
- pKd (GRIP1_5, Q9Y3R0; [1]): below the threshold
- pKd (TIAM2, Q8IVF5; [1]): below the threshold
- pKd (FRMPD1, Q5SYB0; [1]): below the threshold
- pKd (APBA2_1, Q99767; [1]): below the threshold
- pKd (MAGI2_5, Q86UL8; [1]): 4.59
- pKd (LNX1_2, Q8TBB1; [1]): below the threshold
- pKd (FRMPD3, Q5JV73; [1]): below the threshold
- pKd (Inadl_6, Q8NI35; [1]): below the threshold
- pKd (MPP2, Q14168; [1]): below the threshold
- pKd (APBA1_2, Q02410; [1]): 3.52
- pKd (RADIL, Q96JH8; [1]): 3.66
- pKd (NOS1, P29475; [1]): 3.92
- pKd (APBA2_2, Q99767; [1]): below the threshold
- pKd (DLG4_1, P78352; [1]): 3.87
- pKd (SCRIB_3, Q14160; [1]): 4.07
- pKd (MAST2, Q6P0Q8; [1]): 5.13
- pKd (GRIP2_5, Q9C0E4; [1]): below the threshold
- pKd (MAGI2_4, Q86UL8; [1]): below the threshold
- pKd (NHERF3_4, Q5T2W1; [1]): 4.64
- pKd (TJP1_2, Q07157; [1]): below the threshold
- pKd (SIPA1L2, Q9P2F8; [1]): below the threshold
- pKd (LRRC7, Q96NW7; [1]): below the threshold
- pKd (DLG3_2, Q92796; [1]): below the threshold
- pKd (LNX2_2, Q8N448; [1]): below the threshold
Binder: KKMLQRRTLL [OR8G1, Q15617]

The next lines start with the binder.

Binder: QNTDDVQTSF [ACE2, Q9BYF1]
- pKd (PDLIM1, O00151; [2]): below the threshold
- pKd (GRIP1_5, Q9Y3R0; [2]): below the threshold
- pKd (TIAM2, Q8IVF5; [2]): below the threshold
- pKd (FRMPD1, Q5SYB0; [2]): below the threshold
- pKd (APBA2_1, Q99767; [2]): below the threshold
- pKd (MAGI2_5, Q86UL8; [2]): 4.21
- pKd (LNX1_2, Q8TBB1; [2]): below the threshold
- pKd (FRMPD3, Q5JV73; [2]): 3.78
- pKd (Inadl_6, Q8NI35; [2]): below the threshold
- pKd (MPP2, Q14168; [2]): below the threshold
- pKd (APBA1_2, Q02410; [2]): below the threshold
- pKd (RADIL, Q96JH8; [2]): below the threshold
- pKd (NOS1, P29475; [2]): below the threshold
- pKd (APBA2_2, Q99767; [2]): below the threshold
- pKd (DLG4_1, P78352; [2]): below the threshold
- pKd (SCRIB_3, Q14160; [2]): below the threshold
- pKd (MAST2, Q6P0Q8; [2]): 5.13
- pKd (GRIP2_5, Q9C0E4; [2]): below the threshold
- pKd (MAGI2_4, Q86UL8; [2]): below the threshold
- pKd (NHERF3_4, Q5T2W1; [2]): 3.57
- pKd (TJP1_2, Q07157; [2]): below the threshold
- pKd (SIPA1L2, Q9P2F8; [2]): below the threshold
- pKd (LRRC7, Q96NW7; [2]): below the threshold
- pKd (DLG3_2, Q92796; [2]): 3.76
- pKd (LNX2_2, Q8N448; [2]): below the threshold

Binder: AQRARSPSDV [GPR12, P47775]
- pKd (PDLIM1, O00151; [1]): below the threshold
- pKd (GRIP1_5, Q9Y3R0; [1]): below the threshold
- pKd (TIAM2, Q8IVF5; [1]): 4.05
- pKd (FRMPD1, Q5SYB0; [1]): below the threshold
- pKd (APBA2_1, Q99767; [1]): below the threshold
- pKd (MAGI2_5, Q86UL8; [1]): below the threshold
- pKd (LNX1_2, Q8TBB1; [1]): below the threshold
- pKd (FRMPD3, Q5JV73; [1]): below the threshold
- pKd (Inadl_6, Q8NI35; [1]): below the threshold
- pKd (MPP2, Q14168; [1]): below the threshold
- pKd (APBA1_2, Q02410; [1]): 4.14
- pKd (RADIL, Q96JH8; [1]): below the threshold
- pKd (NOS1, P29475; [1]): 3.75
- pKd (APBA2_2, Q99767; [1]): below the threshold
- pKd (DLG4_1, P78352; [1]): below the threshold
- pKd (SCRIB_3, Q14160; [1]): below the threshold
- pKd (MAST2, Q6P0Q8; [1]): below the threshold
- pKd (GRIP2_5, Q9C0E4; [1]): below the threshold
- pKd (MAGI2_4, Q86UL8; [1]): below the threshold
- pKd (NHERF3_4, Q5T2W1; [1]): below the threshold
- pKd (TJP1_2, Q07157; [1]): below the threshold
- pKd (SIPA1L2, Q9P2F8; [1]): below the threshold
- pKd (LRRC7, Q96NW7; [1]): below the threshold
- pKd (DLG3_2, Q92796; [1]): 4.32
- pKd (LNX2_2, Q8N448; [1]): 3.57

Binder: PYSESDDDWC [CACNA1A, O00555]
- pKd (PDLIM1, O00151; [1]): 3.68
- pKd (GRIP1_5, Q9Y3R0; [1]): below the threshold
- pKd (TIAM2, Q8IVF5; [1]): 4.06
- pKd (FRMPD1, Q5SYB0; [1]): below the threshold
- pKd (APBA2_1, Q99767; [1]): below the threshold
- pKd (MAGI2_5, Q86UL8; [1]): below the threshold
- pKd (LNX1_2, Q8TBB1; [1]): below the threshold
- pKd (FRMPD3, Q5JV73; [1]): 3.48
- pKd (Inadl_6, Q8NI35; [1]): below the threshold
- pKd (MPP2, Q14168; [1]): below the threshold
- pKd (APBA1_2, Q02410; [1]): below the threshold
- pKd (RADIL, Q96JH8; [1]): below the threshold
- pKd (NOS1, P29475; [1]): 3.48
- pKd (APBA2_2, Q99767; [1]): below the threshold
- pKd (DLG4_1, P78352; [1]): below the threshold
- pKd (SCRIB_3, Q14160; [1]): 3.83
- pKd (MAST2, Q6P0Q8; [1]): below the threshold
- pKd (GRIP2_5, Q9C0E4; [1]): below the threshold
- pKd (MAGI2_4, Q86UL8; [1]): below the threshold
- pKd (NHERF3_4, Q5T2W1; [1]): below the threshold
- pKd (TJP1_2, Q07157; [1]): below the threshold
- pKd (SIPA1L2, Q9P2F8; [1]): below the threshold
- pKd (LRRC7, Q96NW7; [1]): below the threshold
- pKd (DLG3_2, Q92796; [1]): 4.16
- pKd (LNX2_2, Q8N448; [1]): 4
